One substance from article PMC5399183 can be followed below.

The target of the experiment is Recombinant human integrin αvβ5 (human) (UniProt P06756).
Sequence of UniProt P06756 (P06756 31-1048, chain 1 of 2): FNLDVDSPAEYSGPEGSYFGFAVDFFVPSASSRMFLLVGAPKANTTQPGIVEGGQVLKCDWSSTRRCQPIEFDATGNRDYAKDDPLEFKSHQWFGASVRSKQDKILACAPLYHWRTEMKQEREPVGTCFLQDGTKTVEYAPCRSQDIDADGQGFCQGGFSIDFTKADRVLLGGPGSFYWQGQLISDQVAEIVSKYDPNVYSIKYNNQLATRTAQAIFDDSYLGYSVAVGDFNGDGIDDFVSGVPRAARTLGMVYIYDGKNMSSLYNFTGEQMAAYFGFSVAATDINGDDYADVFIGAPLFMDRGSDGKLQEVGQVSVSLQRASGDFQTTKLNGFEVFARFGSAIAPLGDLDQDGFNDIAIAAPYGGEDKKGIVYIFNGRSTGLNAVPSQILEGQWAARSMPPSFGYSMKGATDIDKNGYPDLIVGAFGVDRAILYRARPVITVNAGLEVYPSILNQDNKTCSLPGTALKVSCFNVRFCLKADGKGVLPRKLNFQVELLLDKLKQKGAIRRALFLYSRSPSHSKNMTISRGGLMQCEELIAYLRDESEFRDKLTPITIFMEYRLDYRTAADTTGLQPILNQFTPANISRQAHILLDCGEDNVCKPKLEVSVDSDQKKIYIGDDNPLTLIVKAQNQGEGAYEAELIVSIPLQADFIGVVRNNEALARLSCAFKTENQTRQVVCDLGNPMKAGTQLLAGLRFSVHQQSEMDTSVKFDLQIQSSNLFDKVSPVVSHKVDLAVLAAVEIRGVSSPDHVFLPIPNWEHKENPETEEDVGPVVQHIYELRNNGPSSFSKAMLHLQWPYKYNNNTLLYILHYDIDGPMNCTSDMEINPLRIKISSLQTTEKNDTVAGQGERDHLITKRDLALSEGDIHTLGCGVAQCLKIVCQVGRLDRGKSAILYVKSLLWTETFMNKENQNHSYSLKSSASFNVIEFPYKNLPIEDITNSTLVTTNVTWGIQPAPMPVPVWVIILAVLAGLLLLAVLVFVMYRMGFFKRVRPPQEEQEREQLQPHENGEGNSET
Sequence of UniProt P06756 (P18084 24-719, chain 2 of 2, further chain): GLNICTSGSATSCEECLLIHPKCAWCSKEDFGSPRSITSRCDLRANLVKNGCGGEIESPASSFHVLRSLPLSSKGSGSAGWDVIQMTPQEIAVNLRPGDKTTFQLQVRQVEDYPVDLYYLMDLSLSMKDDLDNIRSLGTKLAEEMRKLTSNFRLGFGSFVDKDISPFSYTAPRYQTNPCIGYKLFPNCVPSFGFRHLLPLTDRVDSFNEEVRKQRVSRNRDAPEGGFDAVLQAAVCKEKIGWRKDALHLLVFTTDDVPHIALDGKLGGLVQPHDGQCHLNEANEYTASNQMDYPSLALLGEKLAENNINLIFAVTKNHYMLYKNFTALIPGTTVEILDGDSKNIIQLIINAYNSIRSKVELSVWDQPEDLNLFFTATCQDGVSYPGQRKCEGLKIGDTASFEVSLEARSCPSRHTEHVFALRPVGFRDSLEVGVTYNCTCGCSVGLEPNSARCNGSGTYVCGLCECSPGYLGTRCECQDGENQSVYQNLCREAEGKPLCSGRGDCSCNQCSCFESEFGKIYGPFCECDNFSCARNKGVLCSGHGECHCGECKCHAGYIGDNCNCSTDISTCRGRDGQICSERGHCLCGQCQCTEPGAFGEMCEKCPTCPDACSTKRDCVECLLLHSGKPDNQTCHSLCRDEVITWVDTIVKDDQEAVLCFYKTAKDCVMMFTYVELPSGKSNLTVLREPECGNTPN

For “Recombinant human angiopoietin 2 (from UniProt O15123 19-496) (ligand)”, the Ang2-induced astrocyte apoptosis under high glucose (annexin-V/PI FACS, 48 h, percentage of apoptotic cells) with anti-integrin αvβ5 blocking antibody (10 μg/ml) was determined as 19.3%.
